What is called stoichiometry N is a count of units in the complex or per binding partner.

We go through 2 proteins from PMC12242765, “CDK-driven phosphorylation of TRAIP is essential for mitotic replisome disassembly and MiDAS” (Nucleic Acids Research, 2025).

Series [1] deals with the molecule itself. Nature of the series: SEC + other: glycerol gradient sedimentation; Superdex 200 Increase 3.2/300 (Stoke's radius 62.77 Å) and 20%-40% glycerol gradient in LFB1/100 (5.105 S), combined by the Siegel-Monty method; apparent molecular size; monomer to dimer.
Series [2] concerns the molecule itself. Nature of the series: SEC; Superdex 200 Increase 3.2/300, 20 μl/min; TRAIP-wt and CDK1/Cyclin B-phosphorylated TRAIP-wt loaded one at a time; fractions blotted with TRAIP antibodies. Background: In gel filtration, larger molecules generally elute earlier.

B1: His6-SUMO-tagged X. laevis TRAIP-wt (enzyme, UniProt Q6NRV0 1-464, looked up)
chain: MPIRAYCTICSDFFDNARDVAAITCGHTFHQECLLQWFHSAPHRTCPQCRIQVSSRQIINKLFFDIGGEEETVLDAESLKNEVDRIKASLLVKEKEKRECQGLVDSLREMLDVRNVTIQSQQKELGDMEMLCSTLKKQIKFLDKQQSETKAAKDEARKLRNKLKTMESIEVLLQSQRSEVEEMIRDMGSGQAAVEQLAIYCVSLKKEYENLKEVRKSSAEMTEKLRKELFSSNHKAQKAELELTKVREELSASQKELHSADKEIMSLKKKVEFLQKTLTTPTASNEAISRLIFESPAPIGLERPKLRPPMMGNDINLDVTFDIDTPEHNTQKSVVAPFKKMKFDNKEHPLSSPTKNPLQESKGLMSWAGGRTGADEDDDLTLPSFIKNSLLHKKPVGSLLGLRQNTGAVRTGFDGLGGRTKFIQPSNLTEIRPLHQKMKRKKVSRPTACTSSLANQPRLEDFLK
notes: TRAIP ubiquitin ligase, Xenopus laevis, wild type; SUMO-TRAIP is said to be 65 kDa; also called His6-SUMO-TRAIP-wt; His-SUMO-TRAIP; source: E. coli Rosetta (DE3) pLysS, pCA528 vector, purified (Ni-NTA; Mono Q for the gel filtration); not shown: His6, N-terminal, kept; SUMO, N-terminal, kept
For the protein B1, in series [1], the “stoichiometry N” value was 2.

B2: phosphorylated His6-SUMO-TRAIP-wt (in vitro phosphorylated with CDK1/Cyclin B) (enzyme, X. laevis, UniProt Q6NRV0 1-464, looked up)
chain: MPIRAYCTICSDFFDNARDVAAITCGHTFHQECLLQWFHSAPHRTCPQCRIQVSSRQIINKLFFDIGGEEETVLDAESLKNEVDRIKASLLVKEKEKRECQGLVDSLREMLDVRNVTIQSQQKELGDMEMLCSTLKKQIKFLDKQQSETKAAKDEARKLRNKLKTMESIEVLLQSQRSEVEEMIRDMGSGQAAVEQLAIYCVSLKKEYENLKEVRKSSAEMTEKLRKELFSSNHKAQKAELELTKVREELSASQKELHSADKEIMSLKKKVEFLQKTLTTPTASNEAISRLIFESPAPIGLERPKLRPPMMGNDINLDVTFDIDTPEHNTQKSVVAPFKKMKFDNKEHPLSSPTKNPLQESKGLMSWAGGRTGADEDDDLTLPSFIKNSLLHKKPVGSLLGLRQNTGAVRTGFDGLGGRTKFIQPSNLTEIRPLHQKMKRKKVSRPTACTSSLANQPRLEDFLK
modifications: phosphorylated in vitro by CDK1/Cyclin B; mutation of T280, S295 and S352 to alanine (TRAIP-3A) abolishes this phosphorylation
notes: TRAIP ubiquitin ligase, Xenopus laevis, wild type, as m1; the sites phosphorylated in vitro were not mapped one by one; T325 is discussed as a possible fourth site; also called phosphorylated TRAIP-wt; phosphorylated TRAIP; source: E. coli Rosetta (DE3) pLysS, purified (Ni-NTA, Mono Q), then phosphorylated in vitro with CDK1/Cyclin B; not shown: His6, N-terminal, kept; SUMO, N-terminal, kept
Take B2: the binding result in series [2] was “binds”.
